Experiments:
[1] = biological target: ALK LF655del cleavage site mutant
[2] = biological target: Full-length human anaplastic lymphoma kinase (ALK) receptor, wild type
Sequence of Full-length human anaplastic lymphoma kinase (ALK) receptor, wild type (chain, as listed by the source): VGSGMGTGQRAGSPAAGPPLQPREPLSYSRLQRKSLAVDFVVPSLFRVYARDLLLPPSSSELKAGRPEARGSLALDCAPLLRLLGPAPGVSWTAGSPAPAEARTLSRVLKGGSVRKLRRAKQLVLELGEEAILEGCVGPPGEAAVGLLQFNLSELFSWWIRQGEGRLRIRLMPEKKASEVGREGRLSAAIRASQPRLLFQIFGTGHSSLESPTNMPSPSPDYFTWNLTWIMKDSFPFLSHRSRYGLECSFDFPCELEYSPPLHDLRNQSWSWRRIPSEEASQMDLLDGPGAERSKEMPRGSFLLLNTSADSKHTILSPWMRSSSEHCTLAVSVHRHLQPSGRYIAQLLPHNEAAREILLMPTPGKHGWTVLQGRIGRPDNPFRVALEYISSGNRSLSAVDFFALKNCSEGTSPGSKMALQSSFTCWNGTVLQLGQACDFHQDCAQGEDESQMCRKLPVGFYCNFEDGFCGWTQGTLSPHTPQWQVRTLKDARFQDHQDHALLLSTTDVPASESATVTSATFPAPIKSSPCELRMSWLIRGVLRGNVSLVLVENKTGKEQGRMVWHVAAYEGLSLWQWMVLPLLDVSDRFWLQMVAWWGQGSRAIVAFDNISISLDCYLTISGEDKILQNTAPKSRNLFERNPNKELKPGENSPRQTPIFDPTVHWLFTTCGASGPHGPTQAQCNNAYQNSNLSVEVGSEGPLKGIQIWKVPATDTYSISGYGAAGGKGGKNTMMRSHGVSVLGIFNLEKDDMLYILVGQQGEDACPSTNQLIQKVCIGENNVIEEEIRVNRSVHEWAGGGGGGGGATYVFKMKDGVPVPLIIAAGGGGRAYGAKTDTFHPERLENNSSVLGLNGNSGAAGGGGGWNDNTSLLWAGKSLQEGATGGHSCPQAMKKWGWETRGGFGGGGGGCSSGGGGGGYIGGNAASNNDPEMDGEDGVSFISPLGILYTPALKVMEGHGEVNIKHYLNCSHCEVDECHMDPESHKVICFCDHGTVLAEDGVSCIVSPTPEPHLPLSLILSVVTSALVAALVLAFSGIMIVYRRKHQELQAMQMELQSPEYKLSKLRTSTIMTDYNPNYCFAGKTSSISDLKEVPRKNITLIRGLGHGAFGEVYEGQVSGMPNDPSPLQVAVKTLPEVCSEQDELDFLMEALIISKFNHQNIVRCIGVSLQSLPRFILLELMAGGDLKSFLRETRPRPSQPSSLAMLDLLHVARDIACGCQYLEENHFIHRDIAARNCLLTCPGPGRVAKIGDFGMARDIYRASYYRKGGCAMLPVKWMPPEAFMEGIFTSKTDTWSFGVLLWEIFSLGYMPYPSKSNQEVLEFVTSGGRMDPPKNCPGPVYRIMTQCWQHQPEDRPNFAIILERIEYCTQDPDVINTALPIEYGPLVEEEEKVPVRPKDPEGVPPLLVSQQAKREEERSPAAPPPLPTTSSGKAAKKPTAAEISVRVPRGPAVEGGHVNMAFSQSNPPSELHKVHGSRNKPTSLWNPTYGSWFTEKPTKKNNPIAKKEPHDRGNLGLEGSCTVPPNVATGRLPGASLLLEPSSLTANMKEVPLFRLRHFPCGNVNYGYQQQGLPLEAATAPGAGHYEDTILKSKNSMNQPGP

Sequence of ALK LF655del cleavage site mutant (chain, as listed by the source mutant): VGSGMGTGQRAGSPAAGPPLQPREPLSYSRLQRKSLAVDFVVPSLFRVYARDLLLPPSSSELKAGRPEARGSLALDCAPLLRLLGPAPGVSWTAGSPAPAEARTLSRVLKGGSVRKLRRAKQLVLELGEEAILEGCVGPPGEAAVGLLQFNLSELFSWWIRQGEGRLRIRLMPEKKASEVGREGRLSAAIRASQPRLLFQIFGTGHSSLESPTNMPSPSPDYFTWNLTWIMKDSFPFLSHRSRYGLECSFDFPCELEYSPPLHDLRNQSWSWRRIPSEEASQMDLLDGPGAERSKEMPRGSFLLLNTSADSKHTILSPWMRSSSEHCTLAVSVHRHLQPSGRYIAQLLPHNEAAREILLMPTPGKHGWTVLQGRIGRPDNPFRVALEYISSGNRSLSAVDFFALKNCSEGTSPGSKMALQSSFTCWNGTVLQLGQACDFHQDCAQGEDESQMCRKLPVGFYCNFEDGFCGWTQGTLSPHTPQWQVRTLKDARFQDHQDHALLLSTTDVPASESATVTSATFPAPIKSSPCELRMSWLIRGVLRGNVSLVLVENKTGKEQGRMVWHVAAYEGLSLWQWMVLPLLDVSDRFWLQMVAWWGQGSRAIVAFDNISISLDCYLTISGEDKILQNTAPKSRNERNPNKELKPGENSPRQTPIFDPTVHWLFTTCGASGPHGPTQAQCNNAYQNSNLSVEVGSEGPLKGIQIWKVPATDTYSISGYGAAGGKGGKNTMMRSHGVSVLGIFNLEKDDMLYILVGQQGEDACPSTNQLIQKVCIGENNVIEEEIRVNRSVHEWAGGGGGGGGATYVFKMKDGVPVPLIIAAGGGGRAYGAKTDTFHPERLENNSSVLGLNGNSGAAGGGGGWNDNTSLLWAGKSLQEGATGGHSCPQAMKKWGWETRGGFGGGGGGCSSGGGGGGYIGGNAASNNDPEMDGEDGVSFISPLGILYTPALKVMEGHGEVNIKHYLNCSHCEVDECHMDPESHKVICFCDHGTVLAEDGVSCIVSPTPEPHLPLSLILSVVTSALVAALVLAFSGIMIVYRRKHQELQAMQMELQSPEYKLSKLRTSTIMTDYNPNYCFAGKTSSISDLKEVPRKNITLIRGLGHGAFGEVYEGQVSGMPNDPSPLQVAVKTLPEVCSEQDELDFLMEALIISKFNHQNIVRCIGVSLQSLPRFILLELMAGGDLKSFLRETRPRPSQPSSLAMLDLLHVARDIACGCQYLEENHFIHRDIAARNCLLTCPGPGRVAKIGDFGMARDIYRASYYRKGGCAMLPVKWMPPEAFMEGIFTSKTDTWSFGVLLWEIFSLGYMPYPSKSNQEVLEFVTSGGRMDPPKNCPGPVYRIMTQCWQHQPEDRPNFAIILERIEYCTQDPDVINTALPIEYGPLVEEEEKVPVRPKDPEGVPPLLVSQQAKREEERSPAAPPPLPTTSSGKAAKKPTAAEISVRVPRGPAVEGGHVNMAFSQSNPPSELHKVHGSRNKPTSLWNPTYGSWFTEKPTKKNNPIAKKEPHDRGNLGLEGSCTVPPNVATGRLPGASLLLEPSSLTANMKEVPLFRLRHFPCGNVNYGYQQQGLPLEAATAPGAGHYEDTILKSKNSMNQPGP

B1: Full-length recombinant human MMP-9 (protein)
chain: APRQRQSTLVLFPGDLRTNLTDRQLAEEYLYRYGYTRVAEMRGESKSLGPALLLLQKQLSLPETGELDSATLKAMRTPRCGVPDLGRFQTFEGDLKWHHHNITYWIQNYSEDLPRAVIDDAFARAFALWSAVTPLTFTRVYSRDADIVIQFGVAEHGDGYPFDGKDGLLAHAFPPGPGIQGDAHFDDDELWSLGKGVVVPTRFGNADGAACHFPFIFEGRSYSACTTDGRSDGLPWCSTTANYDTDDRFGFCPSERLYTQDGNADGKPCQFPFIFQGQSYSACTTDGRSDGYRWCATTANYDRDKLFGFCPTRADSTVMGGNSAGELCVFPFTFLGKEYSTCTSEGRGDGRLWCATTSNFDSDKKWGFCPDQGYSLFLVAAHEFGHALGLDHSSVPEALMYPMYRFTEGPPLHKDDVNGIRHLYGPRPEPEPRPPTTTTPQPTAPPTVCPTGPPTVHPSERPTAGPTGPPSAGPTGPPTAGPSTATTVPLSPVDDACNVNIFDAIAEIGNQLYLFKDGKYWRFSEGRGSRPQGPFLIADKWPALPRKLDSVFEERLSKKLFFFSGRQVWVYTGASVLGPRRLDKLGLGADVAQVTGALRSGRGKMLLFSGRRLWRFDVKAQMVDPRSASEVDRMFPGVPLDTHDVFQYREKAYFCQDRFYWRVSSRSELNQVDQVGYVTYDILQCPED
in vitro cleavage assay (western blot of ALK) [1]: but not the ALK LF655del protein | in vitro cleavage assay (western blot of ALK) [2]: Treatment of purified WT ALK, but not the ALK LF655del protein, with recombinant human MMP-9 resulted in ALK cleavage

Source: patent publication US20240262917
